# Source: article PMC9482650, “Quantitative fragmentomics allow affinity mapping of interactomes” (Nature Communications, 2022)
# T1: APBA1_2, Q02410
# T1 sequence (Q02410 742-832, limits assumed, looked up): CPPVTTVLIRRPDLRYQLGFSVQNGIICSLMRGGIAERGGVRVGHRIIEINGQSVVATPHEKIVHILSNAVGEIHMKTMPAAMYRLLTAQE
# T2: ARHGEF11, O15085
# T2 sequence (O15085 42-136, limits assumed, looked up): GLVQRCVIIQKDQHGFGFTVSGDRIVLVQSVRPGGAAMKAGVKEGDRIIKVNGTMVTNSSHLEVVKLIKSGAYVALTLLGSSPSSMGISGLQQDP
# T3: FRMPD1, Q5SYB0
# T3 sequence (Q5SYB0 52-145, limits assumed, looked up): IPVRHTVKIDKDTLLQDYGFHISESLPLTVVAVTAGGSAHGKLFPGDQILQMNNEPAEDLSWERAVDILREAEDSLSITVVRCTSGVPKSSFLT
# T4: GRIP1_3, Q9Y3R0
# T4 sequence (Q9Y3R0 247-346, limits assumed, looked up): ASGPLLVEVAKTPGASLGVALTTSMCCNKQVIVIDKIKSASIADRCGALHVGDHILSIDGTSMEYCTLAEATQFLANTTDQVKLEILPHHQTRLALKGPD
# T5: GRIP1_7, Q9Y3R0
# T5 sequence (Q9Y3R0 999-1096, limits assumed, looked up): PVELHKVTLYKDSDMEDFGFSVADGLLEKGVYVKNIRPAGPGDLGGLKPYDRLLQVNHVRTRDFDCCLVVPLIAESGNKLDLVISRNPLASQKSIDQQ
# T6: LIN7A, O14910
# T6 sequence (O14910 103-200, limits assumed, looked up): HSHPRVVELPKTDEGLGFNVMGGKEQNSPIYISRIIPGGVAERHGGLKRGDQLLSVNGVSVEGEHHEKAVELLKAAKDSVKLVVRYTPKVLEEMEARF
# T7: LIN7B, Q9HAP6
# T7 sequence (Q9HAP6 88-185, limits assumed, looked up): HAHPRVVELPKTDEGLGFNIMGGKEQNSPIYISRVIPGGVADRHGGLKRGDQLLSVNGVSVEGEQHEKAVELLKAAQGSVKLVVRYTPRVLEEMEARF
# T8: MPP2, Q14168
# T8 sequence (Q14168 180-250, limits assumed, looked up): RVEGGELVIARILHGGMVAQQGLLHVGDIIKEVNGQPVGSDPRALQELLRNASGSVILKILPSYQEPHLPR
# T9: PCLO, Q9Y6V0
# T9 sequence (Q9Y6V0 4491-4600, limits assumed, looked up): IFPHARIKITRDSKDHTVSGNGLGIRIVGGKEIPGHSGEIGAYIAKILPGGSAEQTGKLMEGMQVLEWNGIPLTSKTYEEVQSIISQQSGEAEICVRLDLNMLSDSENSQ
# T10: SNTG2, Q9NY99
# T10 sequence (Q9NY99 68-166, limits assumed, looked up): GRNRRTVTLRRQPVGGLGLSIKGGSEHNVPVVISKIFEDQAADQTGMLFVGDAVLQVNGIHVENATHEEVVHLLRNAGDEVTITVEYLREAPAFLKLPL
# T11: TX1BP3, O14907
# T11 sequence (O14907 10-122, limits assumed, looked up): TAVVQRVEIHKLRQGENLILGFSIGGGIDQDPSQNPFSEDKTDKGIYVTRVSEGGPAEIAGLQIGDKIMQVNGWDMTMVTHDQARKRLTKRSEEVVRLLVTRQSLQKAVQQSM
# Assays:
# Experiment in all cases: holdup assay
# Set-up in all cases: key: below the threshold = too weak to quantify, mostly under pKd 3.1 to 4
# AHNAK1, Q09666 = target: AHNAK1, Q09666
# Sequence of AHNAK1, Q09666 (Q09666 4-100): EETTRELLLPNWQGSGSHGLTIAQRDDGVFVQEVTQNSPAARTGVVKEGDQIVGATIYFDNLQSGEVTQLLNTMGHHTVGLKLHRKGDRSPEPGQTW
# APBA1_2, Q02410 = target: T1, APBA1_2, Q02410
# ARHGEF11, O15085 = target: T2, ARHGEF11, O15085
# DLG1_1, Q12959 = target: DLG1_1, Q12959
# DLG2_3, Q15700 = target: DLG2_3, Q15700
# DLG4_2, P78352 = target: DLG4_2, P78352
# Sequence of DLG4_2, P78352 (P78352 155-259): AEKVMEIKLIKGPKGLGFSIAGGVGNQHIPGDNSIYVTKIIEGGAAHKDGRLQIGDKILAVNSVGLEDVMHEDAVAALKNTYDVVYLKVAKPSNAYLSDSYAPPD
# FRMPD1, Q5SYB0 = target: T3, FRMPD1, Q5SYB0
# FRMPD2_2, Q68DX3 = target: FRMPD2_2, Q68DX3
# Sequence of FRMPD2_2, Q68DX3 (Q68DX3 944-1038): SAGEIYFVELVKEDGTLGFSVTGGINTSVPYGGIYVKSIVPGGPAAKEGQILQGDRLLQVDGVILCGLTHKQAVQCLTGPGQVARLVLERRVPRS
# FRMPD4, Q14CM0 = target: FRMPD4, Q14CM0
# Sequence of FRMPD4, Q14CM0 (Q14CM0 67-160): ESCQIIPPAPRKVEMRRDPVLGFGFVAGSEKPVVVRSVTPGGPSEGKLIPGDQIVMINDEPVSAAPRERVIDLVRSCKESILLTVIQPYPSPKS
# GORASP2, Q9H8Y8 = target: GORASP2, Q9H8Y8
# GRASP, Q7Z6J2 = target: GRASP, Q7Z6J2
# Sequence of GRASP, Q7Z6J2 (Q7Z6J2 96-193): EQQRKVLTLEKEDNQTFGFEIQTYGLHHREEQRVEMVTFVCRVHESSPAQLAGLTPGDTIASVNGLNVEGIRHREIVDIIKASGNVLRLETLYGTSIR
# GRID2IP_1, A4D2P6 = target: GRID2IP_1, A4D2P6
# Sequence of GRID2IP_1, A4D2P6 (A4D2P6 1-87): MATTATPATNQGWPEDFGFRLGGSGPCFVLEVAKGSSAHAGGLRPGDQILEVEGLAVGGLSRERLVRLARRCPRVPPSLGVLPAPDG
# GRIP1_3, Q9Y3R0 = target: T4, GRIP1_3, Q9Y3R0
# GRIP1_7, Q9Y3R0 = target: T5, GRIP1_7, Q9Y3R0
# GRIP2_5, Q9C0E4 = target: GRIP2_5, Q9C0E4
# Sequence of GRIP2_5, Q9C0E4 (Q9C0E4 544-642): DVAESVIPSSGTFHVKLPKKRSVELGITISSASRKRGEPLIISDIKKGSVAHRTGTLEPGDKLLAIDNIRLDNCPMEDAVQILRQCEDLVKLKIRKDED
# Inadl_1, Q8NI35 = target: Inadl_1, Q8NI35
# Sequence of Inadl_1, Q8NI35 (Q8NI35 113-229): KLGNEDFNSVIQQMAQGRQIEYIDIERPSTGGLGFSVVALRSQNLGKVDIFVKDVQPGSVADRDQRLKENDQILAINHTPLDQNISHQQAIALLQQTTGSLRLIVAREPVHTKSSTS
# Inadl_10, Q8NI35 = target: Inadl_10, Q8NI35
# Sequence of Inadl_10, Q8NI35 (Q8NI35 1673-1763): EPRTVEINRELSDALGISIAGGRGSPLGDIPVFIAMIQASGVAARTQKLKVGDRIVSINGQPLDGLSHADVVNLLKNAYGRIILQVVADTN
# LIN7A, O14910 = target: T6, LIN7A, O14910
# LIN7B, Q9HAP6 = target: T7, LIN7B, Q9HAP6
# MAGI2_3, Q86UL8 = target: MAGI2_3, Q86UL8
# Sequence of MAGI2_3, Q86UL8 (Q86UL8 600-682): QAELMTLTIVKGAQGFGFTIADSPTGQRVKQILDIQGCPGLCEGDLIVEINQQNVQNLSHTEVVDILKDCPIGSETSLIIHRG
# MPP2, Q14168 = target: T8, MPP2, Q14168
# NHERF4_1, Q86UT5-2 = target: NHERF4_1, Q86UT5-2
# Sequence of NHERF4_1, Q86UT5-2 (Q86UT5 other isoform, or with tags, fused parts or gaps): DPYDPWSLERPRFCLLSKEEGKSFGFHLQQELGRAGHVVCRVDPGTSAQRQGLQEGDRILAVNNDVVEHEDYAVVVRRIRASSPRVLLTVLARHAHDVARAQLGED
# NHERF4_4, Q86UT5 = target: NHERF4_4, Q86UT5
# Sequence of NHERF4_4, Q86UT5 (Q86UT5 464-550): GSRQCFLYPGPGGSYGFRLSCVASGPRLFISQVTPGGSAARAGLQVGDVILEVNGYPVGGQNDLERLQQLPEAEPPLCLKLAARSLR
# PCLO, Q9Y6V0 = target: T9, PCLO, Q9Y6V0
# PTPN3, P26045 = target: PTPN3, P26045
# Sequence of PTPN3, P26045 (P26045 505-587): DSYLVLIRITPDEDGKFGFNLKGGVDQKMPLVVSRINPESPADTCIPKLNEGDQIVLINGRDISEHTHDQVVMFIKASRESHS
# SNTG2, Q9NY99 = target: T10, SNTG2, Q9NY99
# TX1BP3, O14907 = target: T11, TX1BP3, O14907
# [1] = plain residues with an end cap or a label only (N-terminal biotin on a linker: ttds)
# [2] = plain residues with an end cap or a label only (N-terminal biotin on a linker: ahx)
# [3] = plain residues with an end cap or a label only (N-terminal biotin on a linker: ado-ado)
binder,measurement,setting,value
"SGGKRKETLV [NET1, Q7Z628]",pKd,"AHNAK1, Q09666; [1]",3.56
same,pKd,"APBA1_2, Q02410; [1]",3.53
same,pKd,"ARHGEF11, O15085; [1]",4.23
same,pKd,"DLG1_1, Q12959; [1]",5.09
same,pKd,"DLG2_3, Q15700; [1]",5.21
same,pKd,"DLG4_2, P78352; [1]",5.77
same,pKd,"FRMPD1, Q5SYB0; [1]",below the threshold
same,pKd,"FRMPD2_2, Q68DX3; [1]",3.67
same,pKd,"FRMPD4, Q14CM0; [1]",3.65
same,pKd,"GORASP2, Q9H8Y8; [1]",4.03
same,pKd,"GRASP, Q7Z6J2; [1]",below the threshold
same,pKd,"GRID2IP_1, A4D2P6; [1]",below the threshold
same,pKd,"GRIP1_3, Q9Y3R0; [1]",below the threshold
same,pKd,"GRIP1_7, Q9Y3R0; [1]",below the threshold
same,pKd,"GRIP2_5, Q9C0E4; [1]",below the threshold
same,pKd,"Inadl_1, Q8NI35; [1]",below the threshold
same,pKd,"Inadl_10, Q8NI35; [1]",below the threshold
same,pKd,"LIN7A, O14910; [1]",below the threshold
same,pKd,"LIN7B, Q9HAP6; [1]",3.81
same,pKd,"MAGI2_3, Q86UL8; [1]",4.5
same,pKd,"MPP2, Q14168; [1]",below the threshold
same,pKd,"NHERF4_1, Q86UT5-2; [1]",below the threshold
same,pKd,"NHERF4_4, Q86UT5; [1]",below the threshold
same,pKd,"PCLO, Q9Y6V0; [1]",below the threshold
same,pKd,"PTPN3, P26045; [1]",4.66
same,pKd,"SNTG2, Q9NY99; [1]",4.17
same,pKd,"TX1BP3, O14907; [1]",4.44
"ADENEQVSAV [RAPGEF6, Q8TEU7]",pKd,"AHNAK1, Q09666; [2]",below the threshold
same,pKd,"APBA1_2, Q02410; [2]",3.94
same,pKd,"ARHGEF11, O15085; [2]",4.06
same,pKd,"DLG1_1, Q12959; [2]",below the threshold
same,pKd,"DLG2_3, Q15700; [2]",3.63
same,pKd,"DLG4_2, P78352; [2]",4.05
same,pKd,"FRMPD1, Q5SYB0; [2]",below the threshold
same,pKd,"FRMPD2_2, Q68DX3; [2]",4.85
same,pKd,"FRMPD4, Q14CM0; [2]",below the threshold
same,pKd,"GORASP2, Q9H8Y8; [2]",below the threshold
same,pKd,"GRASP, Q7Z6J2; [2]",4.66
same,pKd,"GRID2IP_1, A4D2P6; [2]",below the threshold
same,pKd,"GRIP1_3, Q9Y3R0; [2]",below the threshold
same,pKd,"GRIP1_7, Q9Y3R0; [2]",below the threshold
same,pKd,"GRIP2_5, Q9C0E4; [2]",below the threshold
same,pKd,"Inadl_1, Q8NI35; [2]",below the threshold
same,pKd,"Inadl_10, Q8NI35; [2]",below the threshold
same,pKd,"LIN7A, O14910; [2]",below the threshold
same,pKd,"LIN7B, Q9HAP6; [2]",below the threshold
same,pKd,"MAGI2_3, Q86UL8; [2]",4.15
same,pKd,"MPP2, Q14168; [2]",below the threshold
same,pKd,"NHERF4_1, Q86UT5-2; [2]",below the threshold
same,pKd,"NHERF4_4, Q86UT5; [2]",below the threshold
same,pKd,"PCLO, Q9Y6V0; [2]",below the threshold
same,pKd,"PTPN3, P26045; [2]",4.3
same,pKd,"SNTG2, Q9NY99; [2]",below the threshold
same,pKd,"TX1BP3, O14907; [2]",below the threshold
"ELKAEDEVQI [DCHS2, Q6V1P9]",pKd,"AHNAK1, Q09666; [3]",below the threshold
same,pKd,"APBA1_2, Q02410; [3]",below the threshold
same,pKd,"ARHGEF11, O15085; [3]",below the threshold
same,pKd,"DLG1_1, Q12959; [3]",below the threshold
same,pKd,"DLG2_3, Q15700; [3]",below the threshold
same,pKd,"DLG4_2, P78352; [3]",below the threshold
same,pKd,"FRMPD1, Q5SYB0; [3]",below the threshold
same,pKd,"FRMPD2_2, Q68DX3; [3]",below the threshold
same,pKd,"FRMPD4, Q14CM0; [3]",below the threshold
same,pKd,"GORASP2, Q9H8Y8; [3]",below the threshold
same,pKd,"GRASP, Q7Z6J2; [3]",below the threshold
same,pKd,"GRID2IP_1, A4D2P6; [3]",below the threshold
same,pKd,"GRIP1_3, Q9Y3R0; [3]",below the threshold
same,pKd,"GRIP1_7, Q9Y3R0; [3]",below the threshold
same,pKd,"GRIP2_5, Q9C0E4; [3]",below the threshold
same,pKd,"Inadl_1, Q8NI35; [3]",below the threshold
same,pKd,"Inadl_10, Q8NI35; [3]",below the threshold
same,pKd,"LIN7A, O14910; [3]",below the threshold
same,pKd,"LIN7B, Q9HAP6; [3]",3.48
same,pKd,"MAGI2_3, Q86UL8; [3]",below the threshold
same,pKd,"MPP2, Q14168; [3]",below the threshold
same,pKd,"NHERF4_1, Q86UT5-2; [3]",below the threshold
same,pKd,"NHERF4_4, Q86UT5; [3]",below the threshold
same,pKd,"PCLO, Q9Y6V0; [3]",below the threshold
same,pKd,"PTPN3, P26045; [3]",below the threshold
same,pKd,"SNTG2, Q9NY99; [3]",below the threshold
same,pKd,"TX1BP3, O14907; [3]",below the threshold
"SAPATLSSRA [PDLIM2, Q96JY6]",pKd,"AHNAK1, Q09666; [2]",below the threshold
same,pKd,"APBA1_2, Q02410; [2]",below the threshold
same,pKd,"ARHGEF11, O15085; [2]",below the threshold
same,pKd,"DLG1_1, Q12959; [2]",below the threshold
same,pKd,"DLG2_3, Q15700; [2]",below the threshold
same,pKd,"DLG4_2, P78352; [2]",below the threshold
same,pKd,"FRMPD1, Q5SYB0; [2]",below the threshold
same,pKd,"FRMPD2_2, Q68DX3; [2]",below the threshold
same,pKd,"FRMPD4, Q14CM0; [2]",below the threshold
same,pKd,"GORASP2, Q9H8Y8; [2]",below the threshold
same,pKd,"GRASP, Q7Z6J2; [2]",below the threshold
same,pKd,"GRID2IP_1, A4D2P6; [2]",below the threshold
same,pKd,"GRIP1_3, Q9Y3R0; [2]",below the threshold
same,pKd,"GRIP1_7, Q9Y3R0; [2]",below the threshold
same,pKd,"GRIP2_5, Q9C0E4; [2]",below the threshold
same,pKd,"Inadl_1, Q8NI35; [2]",below the threshold
same,pKd,"Inadl_10, Q8NI35; [2]",below the threshold
same,pKd,"LIN7A, O14910; [2]",below the threshold
same,pKd,"LIN7B, Q9HAP6; [2]",below the threshold
same,pKd,"MAGI2_3, Q86UL8; [2]",below the threshold
same,pKd,"MPP2, Q14168; [2]",below the threshold
same,pKd,"NHERF4_1, Q86UT5-2; [2]",below the threshold
same,pKd,"NHERF4_4, Q86UT5; [2]",below the threshold
same,pKd,"PCLO, Q9Y6V0; [2]",below the threshold
same,pKd,"PTPN3, P26045; [2]",below the threshold
same,pKd,"SNTG2, Q9NY99; [2]",below the threshold
same,pKd,"TX1BP3, O14907; [2]",below the threshold
